Source: patent US7494645B2, “Lipid phosphate phosphatases and uses thereof for treating neuronal diseases” (Charite Universitaetsmedzin-Berlin, priority 2002, dated 2009)
Entries after “also recorded” stand apart in the source; their conditions may differ.

Tests used:
[1] = test system: N1E-115 mouse neuroblastoma cells; test: LPA induced neurite retraction and protection in transfected N1E-115 cells; type: cell-based
Source text: The rat PRG-1 full length clone was amplified by Marathon PCR (Clontech, USA) from adult rat hippocampus RNA (SEQ ID No. 17). For transfection studies, the full length PRG-1 coding sequence was fused to EGFP (pEGFP-N1 vector Clontech, USA). The PRG-1^His/Lys exchange mutant at the catalytic histidine (His-252) was introduced in the same protein fusion vector by site specific mutagenesis (CAT to AAG).
(§1) N1E-115 mouse neuroblastoma cells (ATCC: CRL-2263) were routinely grown in DMEM medium supplemented with selenium-defined fetal bovine serum (10%). The cells were seeded on baked glass cover slides at a density of 10,000 cells/cm^2. The next day, cells were transfected with the cationic lipids procedure (FuGene6, Roche, Germany) and cultivated for 24 h. Serum-starvation was performed for 20 h in DMEM medium, followed by treatment with 10 μmol/l oleoyl-LPA or vehicle (0.9% sodium chloride) (K. Jalink et al (1993) Cell Growth Differ. 4:247-255). After 10 min, cells were fixed in 4% paraformaldehyde for 20 min at room temperature and further analysis processed as described above. Images were taken with a CCD camera on an Olympus BX-50 microscope. Quantification was performed with the Meta Morph analysis system (University Imaging, PA). For statistical analysis Statview II was used (Abacus, USA). The effects of transfection on cell viability were analysed by MTT assay and propidium iodide staining (Savaskan N. E. et al. (2002) FASEB J. 17:112-114).

[2] = test system: entorhinal explants; test: LPA induced neurite retraction in entorhinal explants; type: cell-based, rat; details: 100 nmol/l LPA, 10 min
Experimental: Entorhinal explants from E16 and P0 rat pups were obtained from timed-pregnant Wistar rats and were cultivated as described (N. E. Savaskan (2000) Eur. I. Neurosci 12:1024-1032). In brief, entorhinal cortex was carefully dissected from the hippocampal anlage and the meninges were removed. Explants were gently transferred with a fire-polished Pasteur pipette into 12-well plates and cultivated on baked glass cover slides coated with laminin and poly-L-lysin (25 μg/ml and 10 μg/ml, respectively) in culture medium containing selenium-defined fetal bovine serum [5%] (N. E. Savaskan et al (2000) FASEB J. e-published) (Neurobasal medium plus 25 μg/ml Penicillin/Streptomycin; B-27 supplement). After 24 h, culture medium was exchanged and cultivation was further performed in serum-free Neurobasalmedium for 20 h. Serum-starved explants were treated with 100 nmol/l oleoyl-LPA (5 mmol/l stock solution in ultra-filtrated water) for 10 min or with vehicle (0.9% NaCl) and then fixed in 4% paraformaldehyde for 20 min. For F-actin staining, fixed tissues were incubated with TRITC-phalloidin (0.1 μg/ml, Sigma, Germany) for 40 min, followed by incubation with HOECHST 33258 dye (1:20,000, Sigma, Germany) for 5 min at room temperature. […] Images were taken with a CCD camera on an Olympus BX-50 microscope and quantification was performed using the Meta Morph analysis system (Universal Imaging, PA). […]

[3] = test system: PRG-3 mRNA; test: PRG-3 mRNA in situ hybridization after kainate administration in vivo; set-up: species or system rat; details: 10 mg/kg i.p.
Source text: For hybridization, we used two antisense oligonucleotides which both gave essentially the same hybridization signal: 5′-GCAGAGGTCTGAATTCTAGTGTCTATCGTTATAGTTCCTTAACAGTGTGGG-3′ (SEQ ID NO. 37) and 5′-CATCCTTCTGTAGTAGCTTTCTGCCTCTGCCTCCACTTCTCTCT-3′ (SEQ ID NO. 38) complementary to rat PRG-3 sequence (SEQ ID NO. 23). The oligonucleotide was synthesized by Metabion (Munich, Germany). The specificity was confirmed by a BLAST GenBank search to rule out cross-hybridization with other genes. We used the protocol as previously described (Brauer et al., 2001, supra).
Six rats, weighing 200-300 g, were weight-paired (±10 g per pair). These animals received a single i.p. injection of kainic acid (10 mg/kg bodyweight; from Ocean Products Int., Canada) freshly dissolved in 0.9% saline. Behavior was then observed constantly for 24 hr via video time lapse recordings. […] Severity of seizures was scored for 4 h after kainate injection using the classification of Zhang et al. […] Nissl-positive undamaged neurons were counted in five coronal brain sections per animal (sections were chosen by unbiased sampling), and the mean number of cells per section were determined such that the value obtained for each rat represents an average total number of neurons counted per section (250 μm by 250 μm square in the middle of the CA1 region). […]

[4] = test system: hyperphosphorylated tau protein; test: Tau hyperphosphorylation in neurons overexpressing PRG-1 (cell culture model); type: cell-based
Source text: Alzheimer's disease is characterized by intracellular neurofibrillary tangle formation formed by tau-based paired helical filaments (PHF) and by extracellular beta-amyloid plaques. The degree of Alzheimer dementia correlates well with the severity of PHF occurrence. These PHF are formed by hyperphosphorylated tau formation. […] To gain insights into the functional role of PRG-1 in Alzheimer's pathology we used an established cell culture model.

[5] = test system: N1E-115 cells; test: Ecto-phosphatase activity (extracellular LPA degradation) in transfected N1E-115 cells; type: cell-based, mouse
Experimental: The assay procedures used were adapted from those described in Imai et al. (2000) J. Clin. Endocrinol. Metab 85:3370-3375 and Hooks S. B. et al. (2001) J. Biol. Chem. 276:4611-4621. Briefly, transfected cells were harvested after serum-free cultivation for 20 h by scraping in lysis buffer (containing 20 mmol/l HEPES pH 7.4, 1 mmol/l NaHCO3, 500 μmol/l DTT, 1 mmol/l EGTA) and sonicated with two strokes (Bandolin GM 70, Germany). After centrifugation at 800×g, the supernatant was diluted in lysis buffer and centrifuged at 100,000×g for 1 h. Alternatively, the supernatant was topped on a sucrose step gradient (50% and 5%) and centrifuged at 100,000×g for 1 h (Savaskan, N. E. et al. (2000) Eur. J. Neurosci. 12:1024-1032. The resulting pellet and interphase, respectively, were re-homogenized and centrifuged again at 100,000×g for 1 h. The crude membrane pellet was re-suspended in reaction buffer (50 mmol/l HEPES pH 7,5; 1 mmol/l EGTA) and protein concentration was determined spectroscopically by Bradford protein assay (Amersham, Germany). Assessment of LPA metabolism was performed with exogenous ^3H-oleoeyl-LPA (Perkin Elmer, Germany) measuring ^3H-oleoeyl-glycerol production. […] All fractions of dried plates were scintillation counted and compared with authentic standards (LPA, 1-monoolein, 1,2-monoolein, oleic acid). […]

[6] = test system: N1E-115 cells; test: Cell viability of N1E-115 cells after transfection (MTT assay, propidium iodide staining); type: cell-based, mouse; details: 48-72 h after transfection
Experimental: as §1

Molecule: 1- or 2-oleoyl-lysophosphatidic acid [LPA]
- LPA-induced growth cone collapse of N1E-115 cells ([1]; eGFP-only transfected cells, 10 μmol/l LPA, 10 min): uniformly sensitive
- neurite retraction in embryonic entorhinal explants ([2]; E16 explants (no PRG-1 expression), n=20): rapid neurite retraction
- neurite retraction in postnatal entorhinal explants ([2]; P0 explants (express PRG-1), n=22): did not differ significantly from vehicle treated control cultures

Molecule: C=C(C)[C@H]1CN[C@H](C(=O)O)[C@H]1CC(=O)O [kainic acid]
- PRG-3 mRNA expression in hippocampus ([3]; five days after kainic acid application): comparable levels to the adult non-treated controls
- PRG-3 mRNA expression in hippocampus ([3]; six hours after kainic acid application): rapid PRG-3 repression

B1: PRG-1: plasticity-related gene 1 protein, lipid phosphate phosphatase; rat full length clone expressed by transfection (protein)
chain: MQRAGSSGARGECDISGTGRLRLEQAARLGGRAVHTSPTGGLGARQVAGMSAKERPKGKVIKDSVTLLPCFYFVELPILASSVVSLYFLELTDVFKPVHSGFSCYDRSLSMPYIEPTQEAIPFLMLLSLAFAGPAITIMVGEGILYCCLSKRRNGAGLEPNINAGGCNFNSFLRRAVRFVGVHVVGLCSTALITDIIQLATGYQAPYFLTVCKPMYTSLEGSCKENSYIVEEICSGSDLTVINNGKKSFPSQHATLAAFAAVYVSMYFNSTLTDSSKLLKPLLVFTFIICGIICGLTRITQYKNHPVDVYCGFLIGGGIALYLGLYAVGNFLPSEDSMLQHRDALRSLTDLNQDPSRVLSAKNGSSGDGIAHTEGILNRNHRDASSLTNLKRANADVEIITPRSPMGKESMVTFSNTLPRANTPSVEDPVRRNASIHASMDSARSKQLLTQWKSKNESRKMSLQVMDSEPEGQSPPRSIEMRSSSEPSRVGVNGDHHVPGNQYLKIQPGTVPGCNNSMPAGPRVSIQSRPGSSQLVHIPEETQENISTSPKSSSARAKWLKAAEKTVACNRGNNQPRIMQVIAMSKQQGVLQSSPKNAEGSTVTCTGSIRYKTLTDHEPSGIVRVEAHPENNRPIIQIPSSTEGEGSGSWKWKAPEKSSLRQTYELNDLNRDSESCESLKDSFGSGDRKRKHIDSNEHHHHGITTIRVTPVEGSEIGSETLSVSSSRDSTLRRKGNIILIPERSNSPENTRNIFYKGTSPTRPYKD
- increase of LPA needed to overcome resistance against growth cone collapse ([1]; PRG-1 overexpressing N1E-115 cells, LPA dose response): 10 fold
- protection against LPA-induced growth cone collapse / retraction of processes ([1]; transfected N1E-115 cells, 10 μmol/l LPA): resistance of N1E-115 cells to LPA-induced growth cone collapse; also recorded: did not prevent CPA-induced retraction of processes
- LPA-induced actin-polymerization ([1]; transfected N1E-115 cells, phalloidin staining): prevented LPA-induced actin-polymerization
- hyperphosphorylated tau and PHF formation ([4]; PRG-1 overexpression, tau hyperphosphorylation induced with okadaic acid or LPA): significantly decrease
- hyperphosphorylated tau protein ([4]; neurons overexpressing PRG-1 vs control transfected cells): significant reduction
- increase in ecto-phosphatase activity compared to eGFP transfection alone [5]: 5 fold
- cell viability [6]: unaffected
